Patent US20230330253A1 (LANOVA MEDICINES, published 2023)
Numbering of substitutions follows the chain as printed. In names and notes the source's numbering stands.

B1: 72C1B6A3 chimeric antibody (antibody, V domains shown)
VH: QVQLQQSGGELVKPGASVKMSCKAFGYTFTTYPIEWMKQNHGKSLEWIGNFHPYNDDTKYNEKFKGKAKLTVEKSSSTVYLEVSRLTSDDSAVYYCARRAYGYPYAMDYWGQGTSVTVSS
VL: DIVMTQSPSSLTVTAGEKVTMSCKSSQSLLNSGNQKNYLTWYQQRPGQPPKLLIYRASSRESGVPVRFTGSGSGTDFTLTISSVQAEDLAVYYCQNDYIYPYTFGGGTKLEMN
B2: 64G11B4 chimeric antibody (antibody, V domains shown)
VH: QVQLHQSGTELVRPGTSVKVSCKASGYAFTNYLLEWVKQRPGQGLEWIGEINPGNGGSNYNEKFKGKATLTADKSSSTAYMQLSSLTSVDSAVYFCARIYYGNSFAYWGQGTLVTVSA
VL: DIVMTQSPSSLTVTAGEKVTMNCKSSQSLLNSGNQRNYLTWYQQKPGQPPKLLIYWASTRESGVPDRFTGSGSGTDFTLTISSVQADDLAVYYCQNDYFYPFTFGAGTNLELK
B3: 12F1F4 chimeric antibody (antibody, V domains shown)
VH: QVQLKESGPGLVAPSQSLSITCTVSGFSLINYGVSWVRQPPGKGLEWLGVIWGDGNTNYQSALRSRLSIRKDTSKSQVFLKLNSVHTDGTATYYCAKVGRGNAMDHWGQGISVIVSS
VL: DIVMTQSPSSLTVTARERVSMTCKSSQSLFNSGNQRNYLTWYQQKPGQPPKLLIYWSSTRESGVPDRFTGSGSGTDFTLTISSVQAEDLAIYFCQNNYYYPFTFGSGTKLEIK
B4: 78E8G9G6 chimeric antibody (antibody, V domains shown)
VH: QVQLKESGPGLVAPSQSLSITCTVSGFSLISYGVHWVRQPPGKGLEWLGVIWAGGRTNYNSALMSRLSISKDNSKSQVFLKMNSLQTYDTAMYYCARDRYGGNSLDYWGQGTSVTVSS
VL: DIVMTQSPSSLTVTAGEKVTMNCRSIQSLLNSGNQKNYLSWYQQKPGQPPKLLIYWASTRESGVPDRFTGSGSGTDFTLTIRSVLDEDLAVYYCQNSYSYPFTFGSGTKLEMK
B5: 120B7B2 chimeric antibody (antibody, V domains shown)
VH: EVQLQQSGPELVKPGASVKMSCKASGYTFTGYIIQWMKQKPGLGLEWIGFINPYNDGTKYNEQFKGKATLTSDKSSNAAYMELSSLTSEDSAVYYCARAYFGNSFAYWGQGTLVTVSA
VL: DIVMTQSPSSLTVTAGEKVTMSCKSSQSLLNSGNQKNYLTWYQQRPGQPPKLLMYWASTRESGVPDRFTGSGSGTDFTLTISSGQAEDLAIYFCQNGYYFPFTFGSGTKLETK
B6: 4F11E2 chimeric antibody (antibody, V domains shown)
VH: DVQLVESGGGLVQPGGSRKLSCAASGFTFSTFGMHWVRQAPEKGLEWVAYITSGNSPIYFTDTVKGRFTISRDNPKNTLFLQMTSLGSEDTAVYYCARSSYYGNSMDYWGQGTSVTVSS
VL: DIVMTQSPSSLTVTAGEKVTLTCRSSQSLLNSGNRKNYLTWYQQIPGQPPKLLIYWASTRESGVPDRFTGSGSGTYFTLTISSVQAEDLAVYYCQNAYSYPFTFGSGTKLEKK
B7: 175D10 (IMAB362; claudiximab) (antibody, V domains shown)
VH: QVQLQQPGAELVRPGASVKLSCKASGYTFTSYWINWVKQRPGQGLEWIGNIYPSDSYTNYNQKFKDKATLTVDKSSSTAYMQLSSPTSEDSAVYYCTRSWRGNSFDYWGQGTTLTVSS
VL: B2 VL with N22S, R36K, D87E, F99S, A106S, N109K, L112I
B8: 103F6D3 chimeric antibody (antibody, V domains shown)
VH: QVQLQQSGAELARPGASVKMSCKASGYTFPTYSIHWLKQGPGQGLEWIGYINPNTIYTNYNQKFKYKTTLTADKSSSTAYIQLSSLTSDDSAVYYCAREGYGRGNAMDYWGQGTSVTVSS
VL: B6 VL with L11Q, T22S, S32G, R35Q, I45K, L79F, S99F, S106A, K112L
B9: 111E7E2 chimeric antibody (antibody, V domains shown)
VH: QVQLKESGPGLVAPSQSLSITCTVSGFSLTSYGAHWVRQPPGKGLEWLGVIWAGGSTNYDSALMSRLSISKDRSKSQVFLKMTSLQTDDTAMYYCARSLYGNSFDHWGQGTTLTVSS
VL: B2 VL with N22S, L30F, R36K, D87E, D97N, F99I, F102L, T103A, N109K
B10: 103H2B4 chimeric antibody (antibody, V domains shown)
VH: QVQLQQPGAEPVKPGASVKLSCKASGYSFTNFLTHWVRQRPGQGLEWIGEINPTNGRTYYNEKFKRKATLTVDKSSTTVYMQLSNLTPEDSAVFYCARIYYGNSMDYWGQGTLVTVSA
VL: B2 VL with V3L, N22S, R36K, P49S, D87E, D97N, F102L, A106V, N109K
B11: 111B12D11 chimeric antibody (antibody, V domains shown)
VH: B9 VH with A34V, A62T
VL: B2 VL with N22R, K24R, L30F, D87E, D97N, F99I, F102L, T103A, N109K
B12: 100F4G12 chimeric antibody (antibody, V domains shown)
VH: EVQLQQSGPELVKPGASVKMSCKASGYTFTGFLMHWVKQKPGQGLEWIGYINPYNDGTKYSERFKGKATLTSDKSSSTAYMELSSLTSDDSAVYYCARLDYGNAMDYWGQGTSVTVSS
VL: DIVMTQSPSSLTVTAGEKVTMRCKSTQSLLNSGNQRNYLTWYQQKPGQSPKLLIYWASTRESGVPERFTGSGSGTDFTLTISSVQAEDLAVYYCQNAYYYPLTFGPGTKLERK
B13: 113E12F7 chimeric antibody (antibody, V domains shown)
VH: B9 VH with S25T, T30S, A34V
VL: DIVMTQSPSSLTVTTGEKVTMSCKSSQSLFNSGNQKNYLTWYQQKPGQPPKLLIYWASTRESGVPDRFTGSGSGTYFTLTISSVQAEDLAVYYCQNNYIYPLAFGTGTKLELK
B14: 4F11E2 HC N55E-LC S32A (BG2001-C) (humanized, PTM de-risked, No. 3) (antibody, V domains shown)
VH: EVQLVESGGGLVQPGGSLRLSCAASGFTFSTFGMHWVRQAPGKGLEWVSYITSGESPIYFTDTVKGRFTISRDNAKNSLYLQMNSLRAEDTAVYYCARSSYYGNSMDYWGQGTLVTVSS
VL: DIVMTQSPDSLAVSLGERATINCRSSQSLLNAGNRKNYLTWYQQKPGQPPKLLIYWASTRESGVPDRFSGSGSGTDFTLTISSLQAEDVAVYYCQNAYSYPFTFGGGTKLEIK
B15: 120B7B2 HC G57D&S104A-LC S32A&G97A (BG2001-E) (humanized, PTM de-risked, No. 7) (antibody, V domains shown)
VH: QVQLVQSGAEVKKPGASVKVSCKASGYTFTGYIIQWVRQAPGQRLEWMGFINPYNDDTKYNEQFKGRVTITRDTSASTAYMELSSLRSEDTAVYYCARAYFGNAFAYWGQGTLVTVSS
VL: B14 VL with R24K, R35Q, S99Y, Y100F
B16: 72C1B6A3 HC WT-LC S32A (BG2001-D) (humanized, PTM de-risked, No. 5) (antibody, V domains shown)
VH: QVQLVQSGAEVKKPGASVKVSCKASGYTFTTYPIEWVRQAPGQRLEWMGNFHPYNDDTKYNEKFKGRVTITRDTSASTAYMELSSLRSEDTAVYYCARRAYGYPYAMDYWGQGTLVTVSS
VL: B14 VL with R24K, R35Q, W56R, T59S, A97D, S99I, F102Y
B17: 4F11E2 HC N55Q-LC S32A (humanized, PTM de-risked, No. 2) (antibody, V domains shown)
VH: B14 VH with E55Q
VL: B14 VL
B18: 72C1B6A3 HC WT-LC N31E (humanized, PTM de-risked, No. 4) (antibody, V domains shown)
VH: B16 VH
VL: B14 VL with R24K, N31E, A32S, R35Q, W56R, T59S, A97D, S99I, F102Y
B19: 4F11E2 HC N55Q-LC N31E (humanized, PTM de-risked, No. 1) (antibody, V domains shown)
VH: B14 VH with E55Q
VL: B14 VL with N31E, A32S
B20: 120B7B2 HC G57D&S104A-LC-N96E&N31E (humanized, PTM de-risked, No. 6) (antibody, V domains shown)
VH: B15 VH
VL: B14 VL with R24K, N31E, A32S, R35Q, N96E, A97G, S99Y, Y100F

What follows are binders tested against human claudin 18.2 (CLDN18.2) (human) (assay: cell-based or functional assay).

Binder	EC50, ADCC Reporter Bioassay (luciferase, Jurkat FcγRIIIa V158/NFAT effector cells) [pM]
B1	46.3
B2	126
B3	36.8
B4	15.9
B5	5.81
B6	22.2
B7	458
B8	79.5

Target: human claudin 18.2 (CLDN18.2) (human)
Assay: cell-based or functional assay
Remark: another data set of the same source

Binder	Fluorescence, pHAb internalization on MKN45-CLDN18.2 cells, 20 nM antibody, normalized by DAR	Fluorescence, pHAb internalization on MKN45-CLDN18.2 cells, 100 nM antibody, normalized by DAR
B2	24000	33700
B9	12300	28000
B10	23500	35800
B11	15900	37400
B3	29500	43900
B4	26800	41100
B7	7950	18900
B8	23000	41300
B12	17100	33500
B13	13200	29900
B14	19000	28200
B15	19200	31300
B16	26200	36500

Target: human claudin 18.2 (CLDN18.2) (human)
Assay: cell-based or functional assay
Remark: another data set of the same source

Binder	EC50, ADCC Reporter Bioassay (luciferase) [pM]
B7	158
B17	414
B18	1650
B19	238
B14	148
B20	493
B15	114
B16	190
